The assay relates to mutant form of α-Gal A expressed in HEK-293 cells. Put plainly: HEK assay (GLP HEK / Migalastat Amenability Assay): α-Gal A activity in lysates of transiently transfected HEK-293 cells incubated with or without 10 μM migalastat. It counts as cell-based, human. As to conditions: for Absolute increase (% WT) / Relative increase: 10 μM migalastat versus baseline; for Baseline α-Gal A activity (% WT): absence of migalastat; for Baseline α-Gal A activity (% WT) / 10 μM migalastat α-Gal A activity (% WT): percentage of baseline wild-type α-Gal A activity; for Baseline α-Gal A activity (% WT) / Baseline α-Gal A activity / 10 μM migalastat α-Gal A activity / 10 μM migalastat α-Gal A activity (% WT): mean ± SEM; for Baseline α-Gal A activity / 10 μM migalastat α-Gal A activity: lysates of HEK-293 cells transiently transfected with the mutant form; for Baseline α-Gal A activity: incubated 5 days in absence of migalastat; for 10 μM migalastat α-Gal A activity: incubated 5 days with 10 μM migalastat; for 10 μM migalastat α-Gal A activity (% WT): with 10 μM migalastat, 5 days. The method, boiled down: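 Activity reported as 4-MU released (nmol/mg/hr), mean±SEM, from lysates of transiently transfected HEK-293 cells expressing mutant α-Gal A, cultured with or without 10 μM migalastat.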

Numbering of substitutions follows the chain as printed. Names may count otherwise.

B1: Q306L (protein)
chain: MQLRNPELHLGCALALRFLALVSWDIPGARALDNGLARTPTMGWLHWERFMCNLDCQEEPDSCISEKLFMEMAELMVSEGWKDAGYEYLCIDDCWMAPQRDSEGRLQADPQRFPHGIRQLANYVHSKGLKLGIYADVGNKTCAGFPGSFGYYDIDAQTFADWGVDLLKFDGCYCDSLENLADGYKHMSLALNRTGRSIVYSCEWPLYMWPFQKPNYTEIRQYCNHWRNFADIDDSWKSIKSILDWTSFNQERIVDVAGPGGWNDPDMLVIGNFGLSWNQQVTQMALWAIMAAPLFMSNDLRHISPLAKALLQDKDVIAINQDPLGKQGYQLRQGDNFEVWERPLSGLAWAVAMINRQEIGGPRSYTIAVASLGKGVACNPACFITQLLPVKRKLGFYEWTSRLRSHINPTGTVLLQLENTMQMSLKDLL
For the molecule B1, the “Absolute increase (% WT)” value is recorded as 19.6 % WT, the Relative increase is given as 1.3, the “Baseline α-Gal A activity (% WT)” value was determined as 56.9 ± 4 % WT and the “Baseline α-Gal A activity” value stood at 19792 ± 1899 nmol/mg/h. Moreover, the “10 μM migalastat α-Gal A activity” value was 26515 ± 1960 nmol/mg/h and the “10 μM migalastat α-Gal A activity (% WT)” value worked out at 76.4 ± 3.4 % WT.

B2: A307S (protein)
chain: B1 chain with L306Q, A307S
On to B2, for which the “Absolute increase (% WT)” value is 27.7 % WT, the Relative increase worked out at 1.3, the “Baseline α-Gal A activity (% WT)” value was determined as 85.9 ± 4.5 % WT and the “Baseline α-Gal A activity” value was 29300 ± 2037 nmol/mg/h. The “10 μM migalastat α-Gal A activity” value amounted to 38558 ± 2274 nmol/mg/h and the “10 μM migalastat α-Gal A activity (% WT)” value was 113.6 ± 5.2 % WT.

B3: K308R (protein)
chain: B1 chain with L306Q, K308R
For B3, the “Absolute increase (% WT)” value worked out at 20.3 % WT, the Relative increase is on record as 1.3, the “Baseline α-Gal A activity (% WT)” value is recorded as 68.9 ± 4.3 % WT and the “Baseline α-Gal A activity” value was found to be 27103 ± 1767 nmol/mg/h. The “10 μM migalastat α-Gal A activity” value amounted to 35824 ± 2438 nmol/mg/h and the “10 μM migalastat α-Gal A activity (% WT)” value turned out to be 89.1 ± 4.5 % WT.

B4: Q312L (protein)
chain: B1 chain with L306Q, Q312L
B4: the “Absolute increase (% WT)” value is 21.3 % WT, the Relative increase worked out at 1.4, the “Baseline α-Gal A activity (% WT)” value was 50.1 ± 4.1 % WT and the “Baseline α-Gal A activity” value is 16986 ± 1428 nmol/mg/h. Moreover, the “10 μM migalastat α-Gal A activity” value was determined as 23967 ± 1400 nmol/mg/h and the “10 μM migalastat α-Gal A activity (% WT)” value is recorded as 71.5 ± 4.6 % WT.

B5: A307P (protein)
chain: B1 chain with L306Q, A307P
On to B5, for which the “Absolute increase (% WT)” value is on record as 12.3 % WT, the Relative increase came out at 1.4, the “Baseline α-Gal A activity (% WT)” value turned out to be 32.8 ± 1.7 % WT and the “Baseline α-Gal A activity” value is 11388 ± 905 nmol/mg/h. Moreover, the “10 μM migalastat α-Gal A activity” value worked out at 15572 ± 1124 nmol/mg/h and the “10 μM migalastat α-Gal A activity (% WT)” value is on record as 45.2 ± 2.1 % WT.

B6: Q312K (protein)
chain: B1 chain with L306Q, Q312K
Consider B6, for which the “Absolute increase (% WT)” value came to 15.5 % WT, the Relative increase was 1.8, the “Baseline α-Gal A activity (% WT)” value is listed as 19.7 ± 1.4 % WT and the “Baseline α-Gal A activity” value stood at 6733 ± 510 nmol/mg/h. Besides, the “10 μM migalastat α-Gal A activity” value came to 11934 ± 624 nmol/mg/h and the “10 μM migalastat α-Gal A activity (% WT)” value came out at 35.2 ± 1.8 % WT.

B7: D313E (protein)
chain: B1 chain with L306Q, D313E
Regarding B7, the “Absolute increase (% WT)” value came out at 13.2 % WT, the Relative increase is 1.3, the “Baseline α-Gal A activity (% WT)” value amounted to 42.5 ± 2.3 % WT and the “Baseline α-Gal A activity” value is 14321 ± 1579 nmol/mg/h. The “10 μM migalastat α-Gal A activity” value is 18273 ± 1330 nmol/mg/h and the “10 μM migalastat α-Gal A activity (% WT)” value is given as 55.7 ± 1.9 % WT.

B8: K308Q (protein)
chain: B1 chain with L306Q, K308Q
B8: the “Absolute increase (% WT)” value amounted to 30.0 % WT, the Relative increase is given as 1.5, the “Baseline α-Gal A activity (% WT)” value is recorded as 59.1 ± 3.8 % WT and the “Baseline α-Gal A activity” value came out at 24208 ± 1996 nmol/mg/h. The “10 μM migalastat α-Gal A activity” value is 35663 ± 2680 nmol/mg/h and the “10 μM migalastat α-Gal A activity (% WT)” value is reported as 89.1 ± 5.5 % WT.

B9: A307D (protein)
chain: B1 chain with L306Q, A307D
In the case of B9, the “Absolute increase (% WT)” value is 35.9 % WT, the Relative increase was found to be 1.3, the “Baseline α-Gal A activity (% WT)” value came to 126 ± 5.7 % WT and the “Baseline α-Gal A activity” value worked out at 42522 ± 2430 nmol/mg/h. Further, the “10 μM migalastat α-Gal A activity” value came out at 54502 ± 3031 nmol/mg/h and the “10 μM migalastat α-Gal A activity (% WT)” value came out at 161.9 ± 8.6 % WT.

B10: Q306P (protein)
chain: B1 chain with L306P
B10: the “Absolute increase (% WT)” value came to 30.0 % WT, the Relative increase turned out to be 1.5, the “Baseline α-Gal A activity (% WT)” value came to 57.4 ± 2.8 % WT and the “Baseline α-Gal A activity” value turned out to be 19933 ± 1648 nmol/mg/h. Also, the “10 μM migalastat α-Gal A activity” value was found to be 29495 ± 1671 nmol/mg/h and the “10 μM migalastat α-Gal A activity (% WT)” value stood at 87.5 ± 4.8 % WT.

B11: A309T (protein)
chain: B1 chain with L306Q, A309T
As for B11, the “Absolute increase (% WT)” value came out at 18.6 % WT, the Relative increase was 1.2, the “Baseline α-Gal A activity (% WT)” value stood at 74.1 ± 4.6 % WT and the “Baseline α-Gal A activity” value was found to be 29214 ± 1907 nmol/mg/h. In addition, the “10 μM migalastat α-Gal A activity” value worked out at 36228 ± 1841 nmol/mg/h and the “10 μM migalastat α-Gal A activity (% WT)” value turned out to be 92.7 ± 4.8 % WT.

B12: L311I (protein)
chain: B1 chain with L306Q, L311I
In the case of B12, the “Absolute increase (% WT)” value is reported as 23.2 % WT, the Relative increase is 2.9, the “Baseline α-Gal A activity (% WT)” value came to 12.1 ± 0.8 % WT and the “Baseline α-Gal A activity” value was found to be 4020 ± 235 nmol/mg/h. The “10 μM migalastat α-Gal A activity” value amounted to 11558 ± 781 nmol/mg/h and the “10 μM migalastat α-Gal A activity (% WT)” value was found to be 35.3 ± 3.1 % WT.

B13: A307G (protein)
chain: B1 chain with L306Q, A307G
As to B13, the “Absolute increase (% WT)” value was 23.4 % WT, the Relative increase was found to be 1.5, the “Baseline α-Gal A activity (% WT)” value is 52.9 ± 2.5 % WT and the “Baseline α-Gal A activity” value turned out to be 17871 ± 1029 nmol/mg/h. Besides, the “10 μM migalastat α-Gal A activity” value stood at 26053 ± 1631 nmol/mg/h and the “10 μM migalastat α-Gal A activity (% WT)” value is reported as 76.3 ± 3.1 % WT.

B14: A309D (protein)
chain: B1 chain with L306Q, A309D
B14: the “Absolute increase (% WT)” value was determined as 17.6 % WT, the Relative increase worked out at 1.2, the “Baseline α-Gal A activity (% WT)” value is given as 78.3 ± 5.2 % WT and the “Baseline α-Gal A activity” value turned out to be 31696 ± 3036 nmol/mg/h. Further, the “10 μM migalastat α-Gal A activity” value is 38325 ± 2376 nmol/mg/h and the “10 μM migalastat α-Gal A activity (% WT)” value is recorded as 95.8 ± 3.7 % WT.

B15: L310I (protein)
chain: B1 chain with L306Q, L310I
Turning to B15, the “Absolute increase (% WT)” value is listed as 19.6 % WT, the Relative increase came out at 1.3, the “Baseline α-Gal A activity (% WT)” value amounted to 72.8 ± 3.6 % WT and the “Baseline α-Gal A activity” value is 31871 ± 2599 nmol/mg/h. The “10 μM migalastat α-Gal A activity” value amounted to 40310 ± 3345 nmol/mg/h and the “10 μM migalastat α-Gal A activity (% WT)” value came to 92.4 ± 5.1 % WT.

B16: K308I (protein)
chain: B1 chain with L306Q, K308I
Turning to B16, the “Absolute increase (% WT)” value stood at 24.2 % WT, the Relative increase stood at 1.5, the “Baseline α-Gal A activity (% WT)” value stood at 48.6 ± 3.9 % WT and the “Baseline α-Gal A activity” value stood at 19195 ± 1555 nmol/mg/h. In addition, the “10 μM migalastat α-Gal A activity” value is 29251 ± 2026 nmol/mg/h and the “10 μM migalastat α-Gal A activity (% WT)” value was found to be 72.7 ± 3.6 % WT.

B17: A307V (protein)
chain: B1 chain with L306Q, A307V
Regarding B17, the “Absolute increase (% WT)” value turned out to be 34.7 % WT, the Relative increase came to 2.3, the “Baseline α-Gal A activity (% WT)” value is given as 27.5 ± 2 % WT and the “Baseline α-Gal A activity” value was found to be 11478 ± 1200 nmol/mg/h. The “10 μM migalastat α-Gal A activity” value turned out to be 25989 ± 2015 nmol/mg/h and the “10 μM migalastat α-Gal A activity (% WT)” value turned out to be 62.2 ± 3.3 % WT.

B18: Q312E (protein)
chain: B1 chain with L306Q, Q312E
With B18, the “Absolute increase (% WT)” value stood at 15.1 % WT, the Relative increase was 4.6, the “Baseline α-Gal A activity (% WT)” value is on record as 4.1 ± 0.2 % WT and the “Baseline α-Gal A activity” value was 1365 ± 57 nmol/mg/h. Moreover, the “10 μM migalastat α-Gal A activity” value is 6331 ± 466 nmol/mg/h and the “10 μM migalastat α-Gal A activity (% WT)” value amounted to 19.2 ± 1.7 % WT.

The values are drawn from US11833164B2, “Methods of treating Fabry disease in patients having a mutation in the GLA gene” (Amicus Therapeutics, Inc., priority 2019, dated 2023).
